The values that follow come from patent US20170253633A1 (IMMATICS BIOTECHNOLOGIES, published 2017).

Sequences and labels used below:
B1: KLWGQSIQL (peptide)
peptide: KLWGQSIQL
notes: gene: SWT1
B2: GVALTVTGV (peptide)
peptide: GVALTVTGV
notes: gene: FLOT2
B3: TLTSKLYSL (peptide)
peptide: TLTSKLYSL
notes: gene: UQCR10
B4: GLWHGMFANV (peptide)
peptide: GLWHGMFANV
notes: gene: DIP2B
B5: ILLQASVQV (peptide)
peptide: ILLQASVQV
notes: gene: TMPRSS4
B6: ILTSIQSLL (peptide)
peptide: ILTSIQSLL
notes: genes: UBE2A, UBE2B
B7: NLAGVYSEV (peptide)
peptide: NLAGVYSEV
notes: gene: DRG1
B8: FVFEPPPGV (peptide)
peptide: FVFEPPPGV
notes: gene: DYNC1H1
B9: SMFGAGLTV (peptide)
peptide: SMFGAGLTV
notes: gene: ATP6V0B
B10: ALLDGRVQL (peptide)
peptide: ALLDGRVQL
notes: gene: AGRN
B11: ALFPHLLQPVL (peptide)
peptide: ALFPHLLQPVL
notes: gene: CSE1L
B12: AMAELRVVV (peptide)
peptide: AMAELRVVV
notes: gene: CYP4F22
B13: GLDPLGYEIQL (peptide)
peptide: GLDPLGYEIQL
notes: gene: NUP107
B14: YILEGEPGKV (peptide)
peptide: YILEGEPGKV
notes: gene: SRP68
B15: SLLRVGWSV (peptide)
peptide: SLLRVGWSV
notes: genes: BSCL2, HNRNPUL2
B16: ILEPSLYTV (peptide)
peptide: ILEPSLYTV
notes: gene: COPZ1
B17: SLWEENQAL (peptide)
peptide: SLWEENQAL
notes: gene: LAMA5
B18: YLFPETEFI (peptide)
peptide: YLFPETEFI
notes: gene: TBX3
B19: ALADGVPVAL (peptide)
peptide: ALADGVPVAL
notes: gene: AP5B1
B20: AVVSSVNTV (peptide)
peptide: AVVSSVNTV
notes: gene: SNCG
B21: ALIGDDVGL (peptide)
peptide: ALIGDDVGL
notes: gene: C17orf85
B22: TMIVSLAAV (peptide)
peptide: TMIVSLAAV
notes: gene: ARL6IP1
B23: ALDPASISV (peptide)
peptide: ALDPASISV
notes: gene: DCUN1D1
B24: SLQSFIHGV (peptide)
peptide: SLQSFIHGV
notes: gene: TMC7
B25: SIVDFLITA (peptide)
peptide: SIVDFLITA
notes: gene: PPP1R13L
B26: RVISSVISV (peptide)
peptide: RVISSVISV
notes: gene: ELTD1
B27: GLYEGLDWL (peptide)
peptide: GLYEGLDWL
notes: genes: ARF3, TRIM23, ARF1, ARF4
B28: HLLDSKVPSV (peptide)
peptide: HLLDSKVPSV
notes: gene: ITGB4
B29: ALASLENHV (peptide)
peptide: ALASLENHV
notes: gene: TRIM33
B30: LLAGLLVGV (peptide)
peptide: LLAGLLVGV
notes: gene: C1orf159
B31: LLQEGEVYSA (peptide)
peptide: LLQEGEVYSA
notes: gene: PRPF8
B32: SLFTGLRSI (peptide)
peptide: SLFTGLRSI
notes: genes: DUOX2, DUOX1
B33: QIWDKILSV (peptide)
peptide: QIWDKILSV
notes: gene: DHRS2
B34: FLIJLIISV (peptide)
peptide: FLI[pS]LIISV
notes: gene: TAS2R9
B35: ILLDTPLFLL (peptide)
peptide: ILLDTPLFLL
notes: gene: SERHL2
B36: NLHNSYYSV (peptide)
peptide: NLHNSYYSV
notes: gene: CCNG2
B37: KLTNGIWVL (peptide)
peptide: KLTNGIWVL
notes: gene: AP1B1
B38: NLDAATYQV (peptide)
peptide: NLDAATYQV
notes: gene: SLC35A3
B39: ALLDEQQVNVLL (peptide)
peptide: ALLDEQQVNVLL
notes: gene: ID1
B40: LLDLIQTKV (peptide)
peptide: LLDLIQTKV
notes: genes: AP2B1, AP1B1
B41: YLIGLDPENLAL (peptide)
peptide: YLIGLDPENLAL
notes: gene: CROT
B42: TVGPGLLGV (peptide)
peptide: TVGPGLLGV
notes: gene: VWF
B43: ILDEMRAQL (peptide)
peptide: ILDEMRAQL
notes: gene: OAS3
B44: FLDPATPRV (peptide)
peptide: FLDPATPRV
notes: gene: TGIF1
B45: ALSFSSSAGPGLLKA (peptide)
peptide: ALSFSSSAGPGLLKA
notes: gene: KRT7
B46: GLLSQGSPL (peptide)
peptide: GLLSQGSPL
notes: gene: GCLC
B47: QMFEGQILDV (peptide)
peptide: QMFEGQILDV
notes: gene: AIM1L
B48: SLDKGTLYI (peptide)
peptide: SLDKGTLYI
notes: gene: PLBD1
B49: GMTELYFQL (peptide)
peptide: GMTELYFQL
notes: gene: PRKDC

Non-standard residues stand in square brackets, D forms with d. No end group written: not given here. pS = N[C@@H](COP(=O)(O)O)C(=O)O

The target in one experiment is T1, HLA-A*02:01 (human).
T1 construct: MHC monomer first loaded with a UV-sensitive peptide, which is cleaved by UV and exchanged with the test peptide; captured on streptavidin plates; also called peptide-receptive MHC molecules
Nature of the experiment: UV-ligand exchange + anti-b2m ELISA; ++++ = peptide exchange yield >75%. An excerpt: (§1) Candidate peptides for T cell based therapies according to the present invention were further tested for their MHC binding capacity (affinity). The individual peptide-MHC complexes were produced by UV-ligand exchange, where a UV-sensitive peptide is cleaved upon UV-irradiation, and exchanged with the peptide of interest as analyzed. Only peptide candidates that can effectively bind and stabilize the peptide-receptive MHC molecules prevent dissociation of the MHC complexes. To determine the yield of the exchange reaction, an ELISA was performed based on the detection of the light chain (β2m) of stabilized MHC complexes. The assay was performed as generally described in Rodenko et al. (Rodenko et al., 2006).
(§2) 96 well MAXISorp plates (NUNC) were coated over night with 2 ug/ml streptavidin in PBS at room temperature, washed 4× and blocked forth at 37° C. in 2% BSA containing blocking buffer. Refolded HLA-A*02:01/MLA-001 monomers served as standards, covering the range of 15-500 ng/ml. Peptide-MHC monomers of the UV-exchange reaction were diluted 100 fold in blocking buffer. Samples were incubated for 1 h at 37° C., washed four times, incubated with 2 ug/ml HRP conjugated anti-β2m for 1 h at 37° C., washed again and detected with TMB solution that is stopped with […]. Absorption was measured at 450 nm. Candidate peptides that show a high exchange yield (preferably higher than 50%, most preferred higher than 75%) are generally preferred for a generation and production of antibodies or fragments thereof, and/or T cell receptors or fragments thereof, as they show sufficient avidity to the MHC molecules and prevent dissociation of the MHC complexes.
As to B1, the peptide exchange yield was more than 75%.

In the case of B2, the peptide exchange yield is more than 75%.

On to B3, for which the peptide exchange yield is more than 75%.

For the molecule B4, the peptide exchange yield was more than 75%.

For the molecule B5, the peptide exchange yield is more than 75%.

B6: the peptide exchange yield was more than 75%.

Take B7: the peptide exchange yield was more than 75%.

For B8, the peptide exchange yield is more than 75%.

In the case of B9, the peptide exchange yield was more than 75%.

Regarding B10, the peptide exchange yield is more than 75%.

B11: the peptide exchange yield is more than 75%.

With B12, the peptide exchange yield is more than 75%.

For B13, the peptide exchange yield is more than 75%.

Consider B14, for which the peptide exchange yield is more than 75%.

Regarding B15, the peptide exchange yield was more than 75%.

With B16, the peptide exchange yield was more than 75%.

The target of a further experiment is T1, HLA-A*02:01. Nature of the experiment: UV-ligand exchange + anti-b2m ELISA; +++ = peptide exchange yield >50.
Excerpt: as §1, §2
Take B17: the peptide exchange yield was in the range of 50 to 75%.

B18: the peptide exchange yield was in the range of 50 to 75%.

In the case of B19, the peptide exchange yield was 50 to 75%.

For B20, the peptide exchange yield is 50 to 75%.

For B21, the peptide exchange yield lay in the range of 50 to 75%.

Turning to B22, the peptide exchange yield was in the range of 50 to 75%.

For the molecule B23, the peptide exchange yield was in the range of 50 to 75%.

For the molecule B24, the peptide exchange yield was in the range of 50 to 75%.

On to B25, for which the peptide exchange yield fell in the range of 50 to 75%.

Consider B26, for which the peptide exchange yield fell in the range of 50 to 75%.

Regarding B27, the peptide exchange yield was in the range of 50 to 75%.

As for B28, the peptide exchange yield lay within 50 to 75%.

As for B29, the peptide exchange yield lay in the range of 50 to 75%.

Consider B30, for which the peptide exchange yield was in the range of 50 to 75%.

Regarding B31, the peptide exchange yield is 50 to 75%.

As for B32, the peptide exchange yield was 50 to 75%.

For B33, the peptide exchange yield lay in the range of 50 to 75%.

Consider B34, for which the peptide exchange yield was in the range of 50 to 75%.

As to B35, the peptide exchange yield lay in the range of 50 to 75%.

Consider B36, for which the peptide exchange yield fell in the range of 50 to 75%.

Take B37: the peptide exchange yield is 50 to 75%.

Regarding B38, the peptide exchange yield was in the range of 50 to 75%.

On to B39, for which the peptide exchange yield fell in the range of 50 to 75%.

For B40, the peptide exchange yield lay within 50 to 75%.

Regarding B41, the peptide exchange yield is 50 to 75%.

On to B42, for which the peptide exchange yield is 50 to 75%.

Take B43: the peptide exchange yield lay within 50 to 75%.

As for B44, the peptide exchange yield lay within 50 to 75%.

For the molecule B45, the peptide exchange yield lay in the range of 50 to 75%.

As for B46, the peptide exchange yield is 50 to 75%.

For B47, the peptide exchange yield lay in the range of 50 to 75%.

As to B48, the peptide exchange yield was 50 to 75%.

Take B49: the peptide exchange yield is 50 to 75%.
